Laboratory results published in patent US20170081400A1 (CEPHALON, published 2017).

T1: human TL1A extracellular domain with N-terminal HIS and FLAG tag (human) (UniProt O95150)
T1 sequence: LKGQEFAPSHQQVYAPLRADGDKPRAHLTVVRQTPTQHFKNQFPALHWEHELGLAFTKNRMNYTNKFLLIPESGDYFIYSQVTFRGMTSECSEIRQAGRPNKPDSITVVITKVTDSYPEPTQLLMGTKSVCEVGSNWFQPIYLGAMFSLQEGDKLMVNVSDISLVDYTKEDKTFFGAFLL

T2: human TL1A extracellular domain with N-terminal HIS and FLAG tag (human, UniProt O95150 72-251)
T2 construct: whole entry named. ~70 kDa fraction purified by gel filtration
T2 sequence: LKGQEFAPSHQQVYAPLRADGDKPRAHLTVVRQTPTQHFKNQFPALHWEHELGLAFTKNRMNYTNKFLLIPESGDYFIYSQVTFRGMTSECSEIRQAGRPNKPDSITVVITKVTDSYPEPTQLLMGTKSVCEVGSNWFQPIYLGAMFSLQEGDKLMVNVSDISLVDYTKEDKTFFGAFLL

T3: human TL1A extracellular domain with N-terminal HIS and FLAG tag (human, UniProt O95150 72-251)
T3 sequence: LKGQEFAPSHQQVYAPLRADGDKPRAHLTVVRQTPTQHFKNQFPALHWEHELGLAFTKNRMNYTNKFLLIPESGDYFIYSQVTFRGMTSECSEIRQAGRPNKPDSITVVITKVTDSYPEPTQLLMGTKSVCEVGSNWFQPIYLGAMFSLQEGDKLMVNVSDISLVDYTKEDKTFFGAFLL

B1: 320-201 (antibody, human IgG1, name in Kabat numbering, V domains shown)
VH: QVQLVQSGAEVKKPGASVKVSCKASGYTFTSYDINWVRQAPGQGLEWMGWLNPNSGNTGYAQKFQGRVTMTADRSTSTAYMELSSLRSEDTAVYYCAREVPETAAFEYWGQGTLVTVSS
VL: QSVLTQPPSVSGAPGQRVTISCTASSSDIGAGLGVHWYQQLPGTAPKLLIEGYYNRPSGVPDRFSGSKSGTSASLTITGLLPEDEGDYYCQSYDGTLSALFGGGTKLTVLG
notes: human IgG1, lambda
B2: 320-237 (antibody, human IgG1, name in Kabat numbering, V domains shown)
VH: QVQLVQSGAEVKKPGASVKVSCKASGYTFTSYDINWVRQAPGQGLEWMGWLNPNSGNTGYAQKFQGRVTMTADRSTSTAYMELSSLRSEDTAVYYCAREVPETAAFEYWGQGTLVTVSS
VL: QSVLTQPPSVSGAPGQRVTISCTSSSSKIGAGLGVHWYQQLPGTAPKLLIEGYYNRPSGVPDRFSGSKSGTSASLTITGLLPEDEGDYYCQSYDGTLSALFGGGTKLTVLG
notes: human IgG1, lambda
B3: 320-584 (antibody, human IgG1, name in Kabat numbering, V domains shown)
VH: QVQLVQSGAEVKKPGASVKVSCKASGYTFTSYDINWVRQAPGQGLEWMGWLNPNSGNTGYAQKFQGRVTMTADRSTSTAYMELSSLRSEDTAVYYCAREVPETAAFEYWGQGTLVTVSS
VL: QSVLTQPPSVSGAPGQRVTISCTSSSSDIGAGSGVHWYQQLPGTAPKLLIEGYYNRPSGVPDRFSGSKSGTSASLTITGLLPEDEGDYYCQSWDGTLSALFGGGTKLTVLG
notes: full-length human IgG1, lambda
B4: 320-211 (antibody, human IgG1, name in Kabat numbering, V domains shown)
VH: QVQLVQSGAEVKKPGASVKVSCKASGYTFTSYDINWVRQAPGQGLEWMGWLNPNSGNTGYAQKFQGRVTMTADRSTSTAYMELSSLRSEDTAVYYCAREVPETAAFEYWGQGTLVTVSS
VL: QSVLTQPPSVSGAPGQRVTISCTSDSSDIGAGLGVHWYQQLPGTAPKLLIEGYYNRPSGVPDRFSGSKSGTSASLTITGLLPEDEGDYYCQSYDGTLSALFGGGTKLTVLG
notes: human IgG1, lambda
B5: 320-236 (antibody, human IgG1, name in Kabat numbering, V domains shown)
VH: QVQLVQSGAEVKKPGASVKVSCKASGYTFTSYDINWVRQAPGQGLEWMGWLNPNSGNTGYAQKFQGRVTMTADRSTSTAYMELSSLRSEDTAVYYCAREVPETAAFEYWGQGTLVTVSS
VL: QSVLTQPPSVSGAPGQRVTISCTSSSSHIGAGLGVHWYQQLPGTAPKLLIEGYYNRPSGVPDRFSGSKSGTSASLTITGLLPEDEGDYYCQSYDGTLSALFGGGTKLTVLG
notes: human IgG1, lambda
B6: 320-213 (antibody, human IgG1, name in Kabat numbering, V domains shown)
VH: QVQLVQSGAEVKKPGASVKVSCKASGYTFTSYDINWVRQAPGQGLEWMGWLNPNSGNTGYAQKFQGRVTMTADRSTSTAYMELSSLRSEDTAVYYCAREVPETAAFEYWGQGTLVTVSS
VL: QSVLTQPPSVSGAPGQRVTISCTSKSSDIGAGLGVHWYQQLPGTAPKLLIEGYYNRPSGVPDRFSGSKSGTSASLTITGLLPEDEGDYYCQSYDGTLSALFGGGTKLTVLG
notes: human IgG1, lambda
B7: 320-586 (antibody, human IgG1, name in Kabat numbering, V domains shown)
VH: QVQLVQSGAEVKKPGASVKVSCKASGYTFTSYDINWVRQAPGQGLEWMGWLNPNSGNTGYAQKFQGRVTMTADRSTSTAYMELSSLRSEDTAVYYCAREVPETAAFEYWGQGTLVTVSS
VL: QSVLTQPPSVSGAPGQRVTISCTSSSSDIGAGLGVLWYQQLPGTAPKLLIEGYYNRPSGVPDRFSGSKSGTSASLTITGLLPEDEGDYYCQSWDGTLSALFGGGTKLTVLG
notes: as for B3
B8: 320-585 (antibody, human IgG1, name in Kabat numbering, V domains shown)
VH: QVQLVQSGAEVKKPGASVKVSCKASGYTFTSYDINWVRQAPGQGLEWMGWLNPNSGNTGYAQKFQGRVTMTADRSTSTAYMELSSLRSEDTAVYYCAREVPETAAFEYWGQGTLVTVSS
VL: QSVLTQPPSVSGAPGQRVTISCTSSSSDIGAGQGVHWYQQLPGTAPKLLIEGYYNRPSGVPDRFSGSKSGTSASLTITGLLPEDEGDYYCQSWDGTLSALFGGGTKLTVLG
notes: as for B3
B9: 320-218 (antibody, human IgG1, name in Kabat numbering, V domains shown)
VH: QVQLVQSGAEVKKPGASVKVSCKASGYTFTSYDINWVRQAPGQGLEWMGWLNPNSGNTGYAQKFQGRVTMTADRSTSTAYMELSSLRSEDTAVYYCAREVPETAAFEYWGQGTLVTVSS
VL: QSVLTQPPSVSGAPGQRVTISCTSSQSDIGAGLGVHWYQQLPGTAPKLLIEGYYNRPSGVPDRFSGSKSGTSASLTITGLLPEDEGDYYCQSYDGTLSALFGGGTKLTVLG
notes: human IgG1, lambda
B10: 320-205 (antibody, human IgG1, name in Kabat numbering, V domains shown)
VH: QVQLVQSGAEVKKPGASVKVSCKASGYTFTSYDINWVRQAPGQGLEWMGWLNPNSGNTGYAQKFQGRVTMTADRSTSTAYMELSSLRSEDTAVYYCAREVPETAAFEYWGQGTLVTVSS
VL: QSVLTQPPSVSGAPGQRVTISCTKSSSDIGAGLGVHWYQQLPGTAPKLLIEGYYNRPSGVPDRFSGSKSGTSASLTITGLLPEDEGDYYCQSYDGTLSALFGGGTKLTVLG
notes: human IgG1, lambda
B11: 320-221 (antibody, human IgG1, name in Kabat numbering, V domains shown)
VH: QVQLVQSGAEVKKPGASVKVSCKASGYTFTSYDINWVRQAPGQGLEWMGWLNPNSGNTGYAQKFQGRVTMTADRSTSTAYMELSSLRSEDTAVYYCAREVPETAAFEYWGQGTLVTVSS
VL: QSVLTQPPSVSGAPGQRVTISCTSSKSDIGAGLGVHWYQQLPGTAPKLLIEGYYNRPSGVPDRFSGSKSGTSASLTITGLLPEDEGDYYCQSYDGTLSALFGGGTKLTVLG
notes: human IgG1, lambda
B12: 320-583 (antibody, human IgG1, name in Kabat numbering, V domains shown)
VH: QVQLVQSGAEVKKPGASVKVSCKASGYTFTSYDINWVRQAPGQGLEWMGWLNPNSGNTGYAQKFQGRVTMTADRSTSTAYMELSSLRSEDTAVYYCAREVPETAAFEYWGQGTLVTVSS
VL: QSVLTQPPSVSGAPGQRVTISCTSSSSDIGAALGVHWYQQLPGTAPKLLIEGYYNRPSGVPDRFSGSKSGTSASLTITGLLPEDEGDYYCQSWDGTLSALFGGGTKLTVLG
notes: as for B3
B13: 320-233 (antibody, human IgG1, name in Kabat numbering, V domains shown)
VH: QVQLVQSGAEVKKPGASVKVSCKASGYTFTSYDINWVRQAPGQGLEWMGWLNPNSGNTGYAQKFQGRVTMTADRSTSTAYMELSSLRSEDTAVYYCAREVPETAAFEYWGQGTLVTVSS
VL: QSVLTQPPSVSGAPGQRVTISCTSSSSAIGAGLGVHWYQQLPGTAPKLLIEGYYNRPSGVPDRFSGSKSGTSASLTITGLLPEDEGDYYCQSYDGTLSALFGGGTKLTVLG
notes: human IgG1, lambda

Key:
[1] = target: T1, human TL1A extracellular domain with N-terminal HIS and FLAG tag (human); assay: cell-based or functional assay
[2] = target: T2, human TL1A extracellular domain with …; assay: SPR run 2; supernatant on Protein A; TL1A 10 ug/mL; timepoint 44
Outline: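 Biacore T200 SPR with antibody (supernatant or Protein A-purified) captured on Protein A amine-coupled to a CM5 chip; capture level recorded as response change at end of capture.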

[3] = target: T2, human TL1A extracellular domain with …; assay: SPR run 2; supernatant on Protein A; TL1A 10 ug/mL; timepoint 220
Outline: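 Double-referenced sensorgrams (reference flow cell and buffer blank subtracted) provided the late-dissociation response for antibodies held by chip-bound Protein A. These antibodies came either as expression supernatant or as Protein A-purified material. The capture amount differed per run and was measured as the RU increase after loading.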

[4] = target: T2, human TL1A extracellular domain with …; assay: SPR run 2; purified antibody on Protein A; TL1A 10 ug/mL; timepoint 44
Excerpt: (§1) 1.5. Antibody expression and antigen binding as determined by SPR. Using a CM5 sensor chip (GE Healthcare) Protein A (Pierce) was coupled to the chip surface using an amine coupling kit (GE Healthcare). Protein A was coupled on flow cell 1 and 2 (or alternatively 3 and 4) using a BIACORE® T200. […] The amount of supernatant or purified protein (as well as the concentration) injected during the capture stage varied between runs and is specified in the header of the Tables 3-11. At the end of injection of the supernatant or purified antibody the change in response units was measured. This value was reported as Capture Level in Tables 3-11. […] The response units were measured prior to the end of the dissociation phase. […] The sensorgrams were double referenced (flow cell 2 is subtracted from flow cell 1 and a buffer blank). As there were a large number of antibody variants to screen, these were screened across different runs (Tables 3-11). […] A summary of the conditions used in each run is below:
(§2) 2.1. […] In some experiment the antibodies were purified using Protein A chromatography (See 1.4) and purified antibodies were used in BIACORE® (GE Healthcare) experiments.

[5] = target: T2, human TL1A extracellular domain with …; assay: SPR run 2; purified antibody on Protein A; TL1A 10 ug/mL; timepoint 590
Excerpt: as §1, §2

[6] = target: T3, human TL1A extracellular domain with …; assay: cell-based or functional assay
[7] = target: T3, human TL1A extracellular domain with …; assay: SPR Run 8, antibody on Protein A, TL1A 5 ug/mL, timepoint 44
Excerpt: as §1, §2

[8] = target: T3, human TL1A extracellular domain with …; assay: SPR Run 8, antibody on Protein A, TL1A 5 ug/mL, timepoint 590
Excerpt: as §1, §2

Binder | Antibody IC50, TL1A induced caspase potency assay in TF-1 cells [1] | Fold improvement over 320-179, TL1A induced caspase potency assay in TF-1 cells [1] | TL1A Binding Level (Early) [2] | TL1A Binding Level (Late) [3] | TL1A Binding Level (Early) [4] | TL1A Binding Level (Late) [5] | Antibody IC50, TL1A induced caspase potency assay in TF-1 cells [6] | Fold improvement over 320-179, TL1A induced caspase potency assay in TF-1 cells [6] | TL1A Binding Level (Early) [7] | TL1A Binding Level (Late) [8]
B1 | 5 ng/mL | 2 fold | 274 RU | 252 RU | 73 RU | 57 RU | – | – | – | –
B2 | – | – | 240 RU | 221 RU | 10 RU | 8 RU | – | – | – | –
B3 | – | – | – | – | – | – | 8 ng/mL | 10 fold | 103 RU | 98 RU
B4 | 10 ng/mL | 3 fold | 206 RU | 164 RU | 80 RU | 64 RU | – | – | – | –
B5 | – | – | 254 RU | 232 RU | 5 RU | 6 RU | – | – | – | –
B6 | 70 ng/mL | 0 fold | 218 RU | 194 RU | 79 RU | 65 RU | – | – | – | –
B7 | – | – | – | – | – | – | 2 ng/mL | 25 fold | 108 RU | 103 RU
B8 | – | – | – | – | – | – | 3 ng/mL | 13 fold | 116 RU | 109 RU
B9 | – | – | 239 RU | 218 RU | 92 RU | 80 RU | – | – | – | –
B10 | 20 ng/mL | 2 fold | 290 RU | 271 RU | 70 RU | 51 RU | – | – | – | –
B11 | – | – | 225 RU | 207 RU | 99 RU | 89 RU | – | – | – | –
B12 | – | – | – | – | – | – | 3 ng/mL | 27 fold | 108 RU | 103 RU
B13 | – | – | 255 RU | 235 RU | 48 RU | 16 RU | – | – | – | –
